Broadly, the IC50 is the concentration needed to halve the response being measured.

We go through 33 molecules from patent US20240059799A1 (Pfizer, published 2024).

To fix the notation:
T1: recombinant human TL1A (human, UniProt O95150 71-251)
T1 construct: The ELISA method says only 'recombinant TL1A' coated on plates; homotrimeric cytokine; also called TNFSF15; recombinant TL1A
T1 chain: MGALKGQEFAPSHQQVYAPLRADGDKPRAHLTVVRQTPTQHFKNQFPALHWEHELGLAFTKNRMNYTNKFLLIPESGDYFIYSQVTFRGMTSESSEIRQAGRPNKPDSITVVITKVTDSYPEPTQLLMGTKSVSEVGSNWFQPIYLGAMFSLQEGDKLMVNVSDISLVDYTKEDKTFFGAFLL

B1: TL1A-0254 (antibody, V domains shown)
VH: QVQLVQSGAEVKKPGASVKVSCKASGYDFTYYGISWVRQAPGQGLEWMGWISTYGGNTHYAPSLQGRVTMTTDTSTSTAYMELRSLRSDDTAVYYCARESYYGSGAFRGGMDVWGQGTTVTVSS
VL: DIQMTQSPSSLSASVGDRVTITCRASQSVSSYLAWYQQKPGKAPKLLIYDASNRATGVPSRFSGSGSGTDFTLTISSLQPEDFATYYCQQRSNWPWTFGQGTKVEIKR
notes: IgG1 effector-minimized/kappa
B2: TL1A-0280 (antibody, human IgG1, kappa, V domains shown)
VH: B1 VH with T30S, G55N, G56T
VL: B1 VL
notes: human IgG1 effector-function-minimized / human kappa
B3: TL1A-0271 (antibody, human IgG1, kappa, V domains shown)
VH: B1 VH with T30S, G55N, G56D, F107H
VL: B1 VL
notes: as for B2
B4: TL1A-0270 (antibody, human IgG1, kappa, V domains shown)
VH: B1 VH with T30S, G55N, G56D
VL: B1 VL
notes: as for B2
B5: TL1A-0285 (antibody, human IgG1, kappa, V domains shown)
VH: B1 VH with I34V, G55N, G56D, F107H
VL: B1 VL
notes: as for B2
B6: TL1A-0258 (antibody, human IgG1, kappa, V domains shown)
VH: B1 VH with F29Y, G55N, G56D, P62Q, S63K
VL: B1 VL
notes: as for B2
B7: TL1A-0263 (antibody, human IgG1, kappa, V domains shown)
VH: B1 VH with F29Y, G55N, G56T, N57G, P62Q, S63K, F107H
VL: B1 VL
notes: as for B2
B8: TL1A-0282 (antibody, V domains shown)
VH: B1 VH with T30S
VL: B1 VL
notes: IgG1 effector-minimized/kappa
B9: TL1A-0278 (antibody, human IgG1, kappa, V domains shown)
VH: B1 VH with T30S, G55N, G56T, N57V
VL: B1 VL
notes: as for B2
B10: TL1A-0286 (antibody, human IgG1, kappa, V domains shown)
VH: B1 VH with I34V, G55N, G56D, P62Q, S63K
VL: B1 VL
notes: as for B2
B11: TL1A-0256 (antibody, human IgG1, kappa, V domains shown)
VH: B1 VH with F29Y, G55N, G56D
VL: B1 VL
notes: as for B2
B12: TL1A-0266 (antibody, human IgG1, kappa, V domains shown)
VH: B1 VH with F29Y, G55N, G56T
VL: B1 VL
notes: as for B2
B13: TL1A-0272 (antibody, human IgG1, kappa, V domains shown)
VH: B1 VH with T30S, G55N, G56D, P62Q, S63K
VL: B1 VL
notes: as for B2
B14: TL1A-0284 (antibody, human IgG1, kappa, V domains shown)
VH: B1 VH with I34V, G55N, G56D
VL: B1 VL
notes: as for B2
B15: TL1A-0277 (antibody, human IgG1, kappa, V domains shown)
VH: B1 VH with T30S, G55N, G56T, N57G, P62Q, S63K, F107H
VL: B1 VL
notes: as for B2
B16: TL1A-0264 (antibody, human IgG1, kappa, V domains shown)
VH: B1 VH with F29Y, G55N, G56T, N57V
VL: B1 VL
notes: as for B2
B17: TL1A-0269 (antibody, V domains shown)
VH: B1 VH with F29Y, F107H
VL: B1 VL
notes: IgG1 effector-minimized/kappa
B18: TL1A-0259 (antibody, V domains shown)
VH: B1 VH with F29Y, G55N, G56D, P62Q, S63K, F107H
VL: B1 VL
notes: IgG1 effector-minimized/kappa
B19: TL1A-0279 (antibody, human IgG1, kappa, V domains shown)
VH: B1 VH with T30S, G55N, G56T, N57V, F107H
VL: B1 VL
notes: as for B2
B20: TL1A-0281 (antibody, human IgG1, kappa, V domains shown)
VH: B1 VH with T30S, G55N, G56T, F107H
VL: B1 VL
notes: as for B2
B21: TL1A-0260 (antibody, human IgG1, kappa, V domains shown)
VH: B1 VH with F29Y, G55N, G56T, N57G
VL: B1 VL
notes: as for B2
B22: TL1A-0255 (antibody, V domains shown)
VH: B1 VH with F107H
VL: B1 VL
notes: IgG1 effector-minimized/kappa
B23: TL1A-0275 (antibody, human IgG1, kappa, V domains shown)
VH: B1 VH with T30S, G55N, G56T, N57G, F107H
VL: B1 VL
notes: as for B2
B24: TL1A-0273 (antibody, human IgG1, kappa, V domains shown)
VH: B1 VH with T30S, G55N, G56D, P62Q, S63K, F107H
VL: B1 VL
notes: as for B2
B25: TL1A-0268 (antibody, V domains shown)
VH: B1 VH with F29Y
VL: B1 VL
notes: IgG1 effector-minimized/kappa
B26: TL1A-0257 (antibody, human IgG1, kappa, V domains shown)
VH: B1 VH with F29Y, G55N, G56D, F107H
VL: B1 VL
notes: as for B2
B27: TL1A-0274 (antibody, human IgG1, kappa, V domains shown)
VH: B1 VH with T30S, G55N, G56T, N57G
VL: B1 VL
notes: as for B2
B28: TL1A-0262 (antibody, human IgG1, kappa, V domains shown)
VH: B1 VH with F29Y, G55N, G56T, N57G, P62Q, S63K
VL: B1 VL
notes: as for B2
B29: TL1A-0267 (antibody, human IgG1, kappa, V domains shown)
VH: B1 VH with F29Y, G55N, G56T, F107H
VL: B1 VL
notes: as for B2
B30: TL1A-0265 (antibody, human IgG1, kappa, V domains shown)
VH: B1 VH with F29Y, G55N, G56T, N57V, F107H
VL: B1 VL
notes: as for B2
B31: TL1A-0276 (antibody, human IgG1, kappa, V domains shown)
VH: B1 VH with T30S, G55N, G56T, N57G, P62Q, S63K
VL: B1 VL
notes: as for B2
B32: TL1A-0283 (antibody, V domains shown)
VH: B1 VH with T30S, F107H
VL: B1 VL
notes: IgG1 effector-minimized/kappa
B33: TL1A-0261 (antibody, human IgG1, kappa, V domains shown)
VH: B1 VH with F29Y, G55N, G56T, N57G, F107H
VL: B1 VL
notes: as for B2

Numbering of substitutions follows the chain as printed.

The test deals with T1, recombinant human TL1A. As to the kind of experiment: competition ELISA on coated recombinant TL1A; competitor biotinylated TL1A-0002. As to the method: For this competition ELISA assay procedure, 96-well high binding plates (Corning, product number 3590) were coated with 1 μg/mL recombinant TL1A in 100 μL/well in Phospate Buffered Saline (PBS) overnight at 4° C. Plates were then blocked in PBS+0.02% casein solution and washed with PBS+0.05% Tween-20 following standard ELISA protocol. […] Plates were washed with PBS+0.05% Tween-20 following standard ELISA protocol, and Streptavidin-HRP (Southern Biotech, product number 7100-05) diluted to 1:10,000 in assay buffer was added to plates and incubated for 25-30 minutes at room temperature. Next, the plates were washed with PBS+0.05% Tween-20 following standard ELISA protocol, and then TMB substrate (BioFX Laboratories, catalog number TMBW-0100-01) was added to plates. Reactions were stopped after approximately 5 minutes by adding 0.18 M ortho-phosphoric acid to each well and absorbance was read at 450 nm.
(In general: An ELISA detects its analyte on a solid surface through an enzyme-linked reagent.)
Turning to B1, the “Bioactivity relative to TL1A-0002” value was determined as 9.2 fold and the IC50 amounted to 46.3 nM.

For the molecule B2, the “Bioactivity relative to TL1A-0002” value was 1.6 fold and the IC50 is 8.2 nM.

Consider B3, for which the “Bioactivity relative to TL1A-0002” value was determined as 2.1 fold and the IC50 came to 10.6 nM.

For B4, the “Bioactivity relative to TL1A-0002” value is 2.3 fold and the IC50 came out at 11.5 nM.

Consider B5, for which the “Bioactivity relative to TL1A-0002” value amounted to 1.7 fold and the IC50 came to 8.6 nM.

For B6, the “Bioactivity relative to TL1A-0002” value came to 2.2 fold and the 50% inhibitory concentration (IC50) was found to be 10.9 nM.

As to B7, the “Bioactivity relative to TL1A-0002” value stood at 1.2 fold and the IC50 was determined as 6.2 nM.

B8: the “Bioactivity relative to TL1A-0002” value worked out at 10.3 fold and the concentration for half-maximal inhibition (IC50) stood at 52.1 nM.

Regarding B9, the “Bioactivity relative to TL1A-0002” value came out at 1.8 fold and the IC50 worked out at 9.1 nM.

Consider B10, for which the “Bioactivity relative to TL1A-0002” value worked out at 2.3 fold and the IC50 came out at 11.6 nM.

Regarding B11, the “Bioactivity relative to TL1A-0002” value stood at 2.3 fold and the IC50 was determined as 11.6 nM.

Take B12: the “Bioactivity relative to TL1A-0002” value was found to be 1.3 fold and the IC50 is 6.6 nM.

With B13, the “Bioactivity relative to TL1A-0002” value came to 2.3 fold and the IC50 stood at 11.6 nM.

On to B14, for which the “Bioactivity relative to TL1A-0002” value was 2 fold and the concentration for half-maximal inhibition (IC50) was 10.3 nM.

Regarding B15, the “Bioactivity relative to TL1A-0002” value was determined as 2 fold and the IC50 was 10.2 nM.

For B16, the “Bioactivity relative to TL1A-0002” value is 3.1 fold and the half-maximal inhibitory concentration (IC50) was found to be 15.8 nM.

In the case of B17, the “Bioactivity relative to TL1A-0002” value was found to be 7.5 fold and the IC50 came to 37.7 nM.

For B18, the “Bioactivity relative to TL1A-0002” value stood at 3.7 fold and the IC50 amounted to 18.4 nM.

As to B19, the “Bioactivity relative to TL1A-0002” value came to 2.1 fold and the IC50 was determined as 10.5 nM.

Turning to B20, the “Bioactivity relative to TL1A-0002” value is 2.6 fold and the IC50 was determined as 13.1 nM.

As for B21, the “Bioactivity relative to TL1A-0002” value was 1.3 fold and the IC50 amounted to 6.8 nM.

For the molecule B22, the “Bioactivity relative to TL1A-0002” value amounted to 7.6 fold and the concentration for half-maximal inhibition (IC50) stood at 38.4 nM.

As to B23, the “Bioactivity relative to TL1A-0002” value amounted to 1.8 fold and the IC50 came to 9 nM.

Turning to B24, the “Bioactivity relative to TL1A-0002” value is 2.2 fold and the IC50 was 10.9 nM.

On to B25, for which the “Bioactivity relative to TL1A-0002” value was found to be 9.6 fold and the 50% inhibitory concentration (IC50) came to 48.2 nM.

Regarding B26, the “Bioactivity relative to TL1A-0002” value worked out at 1.9 fold and the IC50 was found to be 9.5 nM.

As to B27, the “Bioactivity relative to TL1A-0002” value came to 2 fold and the IC50 was 10.1 nM.

As to B28, the “Bioactivity relative to TL1A-0002” value was 1.4 fold and the half-maximal inhibitory concentration (IC50) was found to be 7.3 nM.

Take B29: the “Bioactivity relative to TL1A-0002” value came out at 1.3 fold and the IC50 was 6.8 nM.

B30: the “Bioactivity relative to TL1A-0002” value worked out at 1.7 fold and the IC50 was 8.7 nM.

For B31, the “Bioactivity relative to TL1A-0002” value turned out to be 2.1 fold and the concentration for half-maximal inhibition (IC50) came to 10.6 nM.

With B32, the “Bioactivity relative to TL1A-0002” value was 48.9 fold and the IC50 stood at 246 nM.

As for B33, the “Bioactivity relative to TL1A-0002” value is 1.1 fold and the IC50 was determined as 5.6 nM.
